Experimental data reported in the nanobody polyreactivity screen of Harvey et al. (2022).

test: yeast display, Sf9 membrane polyspecificity reagent, FACS + sequencing; frameworks hold sequencing errors
Summary of the method: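 Nanobodies came from a synthetic yeast display library in Saccharomyces cerevisiae BJ5465, induced with galactose for 36–48 hours and stained for 1 hour at 4 °C with 10% biotinylated, detergent-solubilized Sf9 membrane reagent. Cells were enriched on streptavidin microbeads and then FACS-sorted, with low and high (top ~1%) gates set on anti-HA fluorescence for expression and streptavidin fluorescence for reagent binding. Each polyreactivity label reflects the gate a clone came from. Genes were amplified by colony PCR, sequenced by MiSeq 2 × 250 and filtered by CDR length.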

Sequence	polyreactivity (PSR sort gate)
QVQLVESGGGLVQAGGSLRLSCAASGRIFGYNAMGWYRQAPGKERELVAAINSDGSKNYADSVKGRFTISRDNAKNTVYLQMNSLKPEDTAVYYCNKELYPVGDYEYWGQGTQVTVSS	low polyreactivity
QVQLVESGGGLVQAGGSLRLSCAASGRIFGYNAMGWYRQAPGKERELVAAISDDGSTNYADSVKGRFTISRDNAKNTVYLQMNSLKPEDTAVYYCNADITFYTWGWYYIRYEYWGQGTQVTVSS	low polyreactivity
QVQLVESGGGLVQAGGSLRLSCAASGRIFGYNAMGWYRQAPGKERELVAAISGSGGSTYYADSVKGRFTISRDNAKNTVYLQMNSLKPEDTAVYYCATRHGRYPYTLDYWGQGTQVTVSS	low polyreactivity
QVQLVESGGGLVQAGGSLRLSCAASGRIFGYNAMGWYRQAPGKERELVAVITYSGGSTYYADSVKGRFTISRDNAKNTVYLQMNSMIPEDTAVYYCAADYQPYSYFWQGGTRDMDYWGQGTQVTVSS	low polyreactivity
QVQLVESGGGLVQAGGSLRLSCAASGRIFGYNAMVWYRQAPGKERELVAAISYSGGSTYYADSVKGRFTISRDNAKNTVYLQMNSLKPEDTAVYYCATRPGYWRYEYWGQGTQVTVSS	high polyreactivity
QVQLVESGGGLVQAGGSLRLSCAASGRIFGYNTMGWYRQAPGKERELVARISYDVDSTYYADSVKGRFTISRDNAKNTVYLQMNSLKPEDTAVYYCNARRSNLGSYIEYFGFDYWGQGTQVTVSS	low polyreactivity
QVQLVESGGGLVQAGGSLRLSCAASGRIFGYNVMGWYRQAPGKERELVAAISYGGGRTTYADSVKGRFTISRDNAKNTVYLQMNSLKPEDTAVYYCNAGGQHVTLDNGDYWGQGTQVTVSS	high polyreactivity
QVQLVESGGGLVQAGGSLRLSCAASGRIFGYTMGWYRPAPGKERELVAAISKSGGSTYYADSVKGRFTISRDNAKNTVYLQMNSLKPEDTAVYYCNKPQRILYDYWGQGTQVTVSS	high polyreactivity
QVQLVESGGGLVQAGGSLRLSCAASGRIFGYYAIGWYRQAPGKERELVAAITINGGRTYYADSVKGRFTISRDNAKNTVYLQMNSLKPEDTAVYYCTATSRYNRLGYWGQGTQVTVSS	high polyreactivity
QVQLVESGGGLVQAGGSLRLSCAASGRIFGYYAMGWYRQAPGKERELVAAINSGGSTNYADSVKGRFTISRDNAKNTVYLQMNSLKPEDTAVYYCAAGWRYRYFRSRNFYPYYYWGQGTQVTVSS	high polyreactivity
QVQLVESGGGLVQAGGSLRLSCAASGRIFGYYAMGWYRQAPGKERELVAAINWRGGNTNYADSVKGRFTISRDNAKNTVYLQMNSLKPEDTSVYYCNAQVLVRPIQGEYGYWGQGTQVTVSS	low polyreactivity
QVQLVESGGGLVQAGGSLRLSCAASGRIFGYYAMGWYRQAPGKERELVAAIRYSSGRTYYADSVKGRFTISRDNAKNNVYLQMNSLKPEDTAVYYCNAGYLFLRSYPHDYWGQGTQVTVSS	high polyreactivity
QVQLVESGGGLVQAGGSLRLSCAASGRIFGYYAMGWYRQAPGKERELVAAIRYSSGRTYYADSVKGRFTISRDNAKNTVYLQMNSLKPEDTAVYYCNAYSSTYFYNYDYWGQGTQVTVSS	high polyreactivity
QVQLVESGGGLVQAGGSLRLSCAASGRIFGYYAMGWYRQAPGKERELVAAISQGGGSTYADSVKGRFTISRDNAKNTVYLQMNSLKPEDTAVYYCAKRRRTGYGYWGQGTQVTVSS	high polyreactivity
QVQLVESGGGLVQAGGSLRLSCAASGRIFGYYAMGWYRQAPGKERELVAASTSSDASTYYADSVKGRFTISRDNAKNTDYLQMNSLKPEDTAVYYCNADYPTWSYYLSGYYGYWGQGTQVTVSS	low polyreactivity
QVQLVESGGGLVQAGGSLRLSCAASGRIFGYYAMGWYRQAPGKERELVARITKTVGGTYYADSVKGRFTISRDNAKNTVYLQMNSLKPEDTAVYYCAARVWTGNGRSKGAYDYWGQGTQVTVSS	high polyreactivity
QVQLVESGGGLVQAGGSLRLSCAASGRIFGYYAMGWYRQAPGKERELVATINSVGSTNYADSVKGRFTISRDNAKNTVYLQMNSLKPEDTAVYYCATDSAYTFFTYRLWRHGYWGQGTQVTVSS	low polyreactivity
QVQLVESGGGLVQAGGSLRLSCAASGRIFGYYAMGWYRQAPGTERELVASIRRGTRTNYADSVKGRFTISRDNAKNTVYLQMNSLKPEDTAVYYCAATRFQFTTTPWYDYWGQGTQVTVSS	high polyreactivity
QVQLVESGGGLVQAGGSLRLSCAASGRIFGYYTMGWYRQAPGKERELVAAINGRGTSTYYADSVKGRFTISRDNAKNTVYLQMNSLKPEDTAVYYCAAGGWGPTRAYDYWGQGTQVTVSS	high polyreactivity
QVQLVESGGGLVQAGGSLRLSCAASGRIFHKYDMGWYRQAPGKERELVAAITTSGGSTYYADSVKGRFTISRDNAKNTVYLQMNSLKPEDTAVYYCADSWSRRERGFDYWGQGTQVTVSS	high polyreactivity
QVQLVESGGGLVQAGGSLRLSCAASGRIFHSYTIGWYRPAPGNERELVAAINWSGTRTYYADSVKGRFTISRDNAKNTVYLQMNSLKPEDTAVYYCNRVGVTRSYRYDYWGQGTQVTVSS	high polyreactivity
QVQLVESGGGLVQAGGSLRLSCAASGRIFHTYAMGWYRQAPGKEREFVAAIRWSGGSTYYADSVKGRFTISRDNAKNTVYLQMNSLKPEDTAVYYCAREQVRYYSWFGYWGQGTQVTVSS	high polyreactivity

Sequence	polyreactivity (PSR sort gate)
QVQLVESGGGLVQAGGSLRLSCAASGRIFHVNAMGWYRQAPGKERELVAAISTSGGRTYYADSVKGRFTISRDNAKNTVYLQMNSLKPEDTAVYYCAASLGGYGERYYYWGQGTQVTVSS	high polyreactivity
QVQLVESGGGLVQAGGSLRLSCAASGRIFHYNAMGSYRQAPVKERELVAAISTGGSTNYADSVKGRFTISRDNAKNTVYLQMNSLKPEDTAVYYCAAGPDPLGEDYWGQGTQVTVSS	low polyreactivity
QVQLVESGGGLVQAGGSLRLSCAASGRIFHYNAMGWYRQAPRKERELVAAISTGGSTNYADSVKGRFTISRDNAKNTVYLQMNSLKPEDTAVYYCAADHPVTYPTSKFDYWGQGTQVTVSS	low polyreactivity
QVQLVESGGGLVQAGGSLRLSCAASGRIFHYNDMGWYRQAPWKERELVAAISTGGSTNYADSVKGRFTISRDNAKNTVYLQMNSLKPEDTAVYYCAADHPGTYPTTKFDYWGQGTQVTVSS	low polyreactivity
QVQLVESGGGLVQAGGSLRLSCAASGRIFIAYMGWYRQAPGKERELVAAIDSGASTYYADSVKGRFTISRDNAKNTVYLQMNSLKPEDTAVYYCAADVVYDYGGMDYWGQGTQVTVSS	low polyreactivity
QVQLVESGGGLVQAGGSLRLSCAASGRIFIKNAMGWYRQAPGKERELVAAISSGSSTYYADSVKGRFTISRDNAKNTVYLQMNSLKPEDTAVYLYGSWGQGTQVTVSS	low polyreactivity
QVQLVESGGGLVQAGGSLRLSCAASGRIFILNTMGWYRQAPGKERELVAGISYSGSTYYADSVKGRFTISRDNAKNTVYSQMNSLKPVDTAVYYCAADYDAAWYNDGYYYWGQGTQVTVSS	low polyreactivity
QVQLVESGGGLVQAGGSLRLSCAASGRIFILYAMGWYRQAPGKERELVATITKSGGNTYYADSVKGRFTISRDNAKNTVYLQMNSLKPEDTAVYYCAAQGRDSTPHGYWGQGTQVTVSS	high polyreactivity
QVQLVESGGGLVQAGGSLRLSCAASGRIFINDMGWYRQAPGKERELVAAIRSDGSTNYADSVKGRFTISRDNAKNTVYLQMNSLKPEDTAVYYCNVDGYFLFVRGYEYWGQGTQVTVSS	low polyreactivity
QVQLVESGGGLVQAGGSLRLSCAASGRIFINYAMGWYRQAPGKERELVAAITTNGGSTYYADSVKGRFTISRDNAKYTVYLQMNSLKPEDTAVYYCAARRRYKMDYWGQGTQVTVSS	high polyreactivity
QVQLVESGGGLVQAGGSLRLSCAASGRIFIRNDMGWYRQAPGKERELVAVITRSGGRTYYADSVKGRFTISRDNAKNTVYLQMNSLKPEDTAVYYCAKRQAFKQAPYEYWGQGTQVTVSS	low polyreactivity
QVQLVESGGGLVQAGGSLRLSCAASGRIFISNAMGWYRQAPGKERELVAAITWIGDRTYYADSVKGRFTISRDNAKNTVYLQMNSLKPEDTAVYYCNRVTSRVSGRYSYDYWGQGTQVTVSS	high polyreactivity
QVQLVESGGGLVQAGGSLRLSCAASGRIFISYTMGWYRQAPGKDRELVAGIDSSGTSTYYADSVKGRFTISRDNAKNTVYLQMNSLKPEDTAVYYCNVDGNWKDTSTELDYWGQGTQVTVSS	low polyreactivity
QVQLVESGGGLVQAGGSLRLSCAASGRIFIVNAMGWYRQAPGKERELVAAISYRGGSTYYADSVKGRFTISRDNAKNTVYLQMNSLKPEDTAVYYCNKDSTGDGYDYWGQGTQVTVSS	low polyreactivity
QVQLVESGGGLVQAGGSLRLSCAASGRIFIYNAMGWSRQAPGKEREFVAAISSSGGSTYYADSVKGRFTISRDNAKNTVYLQMNSLKPEDTAVYYCAAGGWPYSGGWFFQPNYDYWGQGTQVTVSS	low polyreactivity
QVQLVESGGGLVQAGGSLRLSCAASGRIFKDYAMGWYRQAPGKEREFVARISSRGGRTYYADSVKGRFTISRDNAKNTVYLQMNSLKPEDTAVYYCAVTTSPYRPTKFDYWGQGTQVTVSS	high polyreactivity
QVQLVESGGGLVQAGGSLRLSCAASGRIFKGYAMGWYRQAPGKERELVASISKRGVSTYYADSVKGRFTISRDNAKNTVYLQMNSLKPEDTAVYYCNARAPGYYYTRYDYWGQGTQVTVSS	high polyreactivity
QVQLVESGGGLVQAGGSLRLSCAASGRIFKINAMGWYRQAPGKERELVAAITRSGGTTYYADSVKGRFTISRDNAKNTVYLQMNSLKPEDTAVDYCARAYSLRVVTGDYWGQGTQVTVSS	high polyreactivity
QVQLVESGGGLVQAGGSLRLSCAASGRIFKIYAMGWYRQAPGKEREFVATISSGGRTNYADSVKGRFTISRDNAKNTVYLQMNSLKPEDTAVYYCNAGARVLYETESFDYWGQGIQVTVSS	low polyreactivity
QVQLVESGGGLVQAGGSLRLSCAASGRIFKIYAMGWYRQAPGKERELVAAISGRGGSTYYADSVKGRFTISRDNAKNTVYLQMNSLKPEDTAVYYCAAVGYGFSAYSTYDYWGQGTQVTVSS	high polyreactivity
QVQLVESGGGLVQAGGSLRLSCAASGRIFKKNAMGWYRQAPGKERELVAAIRGSGDSTFYADSVKGRFTISRDNAKNTVYLQMNSLKPEDTAVYYCAAGDVPRRIYLVYVGYLLDYWGQGTQVTVSS	low polyreactivity
